RSV-A2 IC50 and HMPV-A1 IC50 data for one substance are collected here from patent US20220144922A1.

Test [1] addresses RSV F protein of subtype A strain A2, on virus (respiratory syncytial virus subtype A strain A2) (UniProt P03420). Nature of the test: cell-based or functional assay.
Test [2] deals with HMPV F protein (NL/1/00, A1 sublineage), on virus (human metapneumovirus). In words: cell-based or functional assay.

Sequence of RSV F protein of subtype A strain A2, on virus (respiratory syncytial virus subtype A strain A2) (P03420 26-574): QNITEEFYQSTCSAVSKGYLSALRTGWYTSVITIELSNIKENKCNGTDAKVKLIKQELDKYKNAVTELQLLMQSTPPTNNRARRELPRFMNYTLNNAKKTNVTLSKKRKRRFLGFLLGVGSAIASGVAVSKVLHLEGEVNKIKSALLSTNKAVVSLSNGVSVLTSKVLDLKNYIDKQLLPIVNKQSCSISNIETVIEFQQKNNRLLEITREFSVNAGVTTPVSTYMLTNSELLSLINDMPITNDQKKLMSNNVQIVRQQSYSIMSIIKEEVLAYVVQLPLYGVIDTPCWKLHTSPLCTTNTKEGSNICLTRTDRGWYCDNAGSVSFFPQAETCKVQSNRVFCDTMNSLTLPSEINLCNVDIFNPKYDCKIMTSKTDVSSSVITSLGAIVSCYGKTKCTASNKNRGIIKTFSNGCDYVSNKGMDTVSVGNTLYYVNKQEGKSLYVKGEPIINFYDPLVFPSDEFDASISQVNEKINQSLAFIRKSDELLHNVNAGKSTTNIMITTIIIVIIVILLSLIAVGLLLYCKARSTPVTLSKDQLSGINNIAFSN

For the substance MPE8 (antibody), the RSV-A2 IC50 in test [1] turned out to be 0.04 µg/mL. The substance also came in with an HMPV-A1 IC50 in test [2] of 0.07 µg/mL.
